Here are results for 2 substances from PMC4846087.

The target of assay [1] is GST-tagged VirB9-1 (not stated | Anaplasma marginale). Briefly: SEC; Superdex 200 10/300 GL pre-equilibrated with L buffer (40 mM Tris-base, 200 mM NaCl, 1 mM EDTA, 5% glycerol, 5 mM DTT, pH 8.0); eluate of the GST affinity column loaded; molecular weights of the peaks estimated from the column manufacturer's instructions; peaks analysed by SDS-PAGE.
In assay [2] the target is GST (27 kDa GST protein). The assay is described as above.

On to GST-tagged VirB9-1, for which, in assay [1], the stoichiometry N was 2. “GST (27 kDa GST protein) (natural protein)”: the stoichiometry N in assay [2] is 2.

The term stoichiometry N denotes a count of units in the complex or per binding partner.
